Source: paper PMC7611554

Molecular target: SNAP-LepR:EGFR complex (UniProt P48356)
Test: FRET or BRET

How did the Kd turn out when EGF-d2 (ligand) was run?
Its Kd is 2.1 nM.
